The target of test [1] is T1, gastrin releasing peptide receptor (GRP-R) (human, UniProt P30550 1-384).
T1 construct: whole, on cells; also called GRP receptor; BB2
The experiment in a line: 125I-BBN competition, PC3 cells.

Test [2] concerns the target T2, neuromedin-B preferring receptor (NMB-R) on C6 rodent glioblastoma cells (rodent, UniProt P24053 1-390, limits assumed).
T2 construct: whole, on cells; also called C6/NMB-R
T2 sequence (looked up): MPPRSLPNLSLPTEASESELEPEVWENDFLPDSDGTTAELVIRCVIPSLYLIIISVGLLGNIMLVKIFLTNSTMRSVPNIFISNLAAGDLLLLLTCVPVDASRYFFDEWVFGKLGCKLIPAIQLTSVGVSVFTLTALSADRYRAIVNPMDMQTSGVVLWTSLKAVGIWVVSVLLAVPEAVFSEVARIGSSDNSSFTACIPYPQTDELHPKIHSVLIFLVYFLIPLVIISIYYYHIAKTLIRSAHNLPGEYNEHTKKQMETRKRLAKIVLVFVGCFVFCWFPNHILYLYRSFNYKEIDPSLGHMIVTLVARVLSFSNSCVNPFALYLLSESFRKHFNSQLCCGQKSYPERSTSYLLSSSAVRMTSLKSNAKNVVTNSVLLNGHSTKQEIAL
Briefly: 125I-NMB competition, C6 cells.

Broadly, the IC50 is the concentration needed to halve the response being measured. A lower IC50 goes with greater potency.

T1 sequence (P30550 whole entry): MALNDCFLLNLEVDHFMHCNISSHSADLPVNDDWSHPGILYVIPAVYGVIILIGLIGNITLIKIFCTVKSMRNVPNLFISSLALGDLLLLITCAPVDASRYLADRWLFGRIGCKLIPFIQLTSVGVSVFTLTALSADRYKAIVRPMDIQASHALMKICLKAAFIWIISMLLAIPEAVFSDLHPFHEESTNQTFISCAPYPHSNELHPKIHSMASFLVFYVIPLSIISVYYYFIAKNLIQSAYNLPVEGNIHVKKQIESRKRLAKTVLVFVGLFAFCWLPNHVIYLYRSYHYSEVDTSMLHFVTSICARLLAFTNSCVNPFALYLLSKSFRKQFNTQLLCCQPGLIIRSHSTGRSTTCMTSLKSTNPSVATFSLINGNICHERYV

In test [1], QWAVGHLM (N-term: N,N-dimethylglycine-Ser-Cys(Acm)-Gly-Ser-Lys; C-term amide) [N,N-dimethylglycine-Ser-Cys(Acm)-Gly-SK-QWAVGHLM-NH2] registered an IC50 of 2 nM. The molecule QWAVGHLM (N-term: N,N-dimethylglycine-Ser-Cys(Acm)-Gly-Lys-Glu; C-term amide) [N,N-dimethylglycine-Ser-Cys(Acm)-Gly-KE-QWAVGHLM-NH2] displayed an IC50 in test [2] of 60 nM.

For the molecule QWAVGHLM (N-term: N,N-dimethylglycine-Ser-Cys(Acm)-Gly-Ser-Arg; C-term amide) [N,N-dimethylglycine-Ser-Cys(Acm)-Gly-SR-QWAVGHLM-NH2], the concentration for half-maximal inhibition (IC50) in test [2] was found to be 2 nM.

(Values after US20130136691A1 (BRACCO IMAGING S P A, published 2013).)
